# Experimental data taken from PMC9663324, “Structural and mutational studies suggest key residues to determine whether stomatin SPFH domains form dimers or trimers” (Biochemistry and Biophysics Reports, 2022).
# B1: PhStom (63–234) (domain or fragment, Pyrococcus horikoshii, UniProt O59180 63-234, looked up)
# chain: VDLRTQVLDVPVQETITKDNVPVRVNAVVYFRVVDPVKAVTQVKNYIMATSQISQTTLRSVIGQAHLDELLSERDKLNMQLQRIIDEATDPWGIKVTAVEIKDVELPAGMQKAMARQAEAERERRARITLAEAERQAAEKLREAAEIISEHPMALQLRTLQTISDVAGDKSN
# notes: stomatin PH1511 of Pyrococcus horikoshii, residues 63–234; Initial methionine added before residue 63; In the crystal (8GN9) only residues 64–169 are modelled; the authors consider that residues 170–234 (and so the tag) were degraded during crystallization; source: E. coli BL21 (DE3) Codon-Plus RIL, purified (heat 85 °C, Ni-NTA, Superdex 200 gel filtration)
# B2: PhStom (56–234) K59S (domain or fragment, Pyrococcus horikoshii, UniProt O59180 56-234, looked up)
# chain: IFESAVIVDLRTQVLDVPVQETITKDNVPVRVNAVVYFRVVDPVKAVTQVKNYIMATSQISQTTLRSVIGQAHLDELLSERDKLNMQLQRIIDEATDPWGIKVTAVEIKDVELPAGMQKAMARQAEAERERRARITLAEAERQAAEKLREAAEIISEHPMALQLRTLQTISDVAGDKSN
# notes: stomatin PH1511 of Pyrococcus horikoshii, residues 56–234 with K59S; Initial methionine added before residue 56; PDB 3BK6 is the parent (wild type) of the same limits; also called K59S mutant of PhStom (56–234); K59S mutant; source: E. coli BL21 (DE3) Codon-Plus RIL, purified (heat 85 °C, Ni-NTA, Superdex 200 gel filtration)
# Biological target: the molecule itself
# Experiment: SEC; Hi Load 16/60 Superdex 200 gel-filtration column, 50 mM Tris-HCl (pH 8.2), 50 mM NaCl, 1 mL/min; approximate molecular mass estimated from the elution of calibration proteins (44–669 kDa)
row,Protein,stoichiometry N
1,B1,2
2,B2,2
